# Measured values reported in patent US11459387B2, “Anti-CD147 antibody” (DAIICHI SANKYO COMPANY, LIMITED, priority 2017, dated 2022).
# B1: LN22R8: mouse anti-human CD147 monoclonal antibody, Mouse IgG3; light chain variable region SEQ ID NO: 8, heavy chain variable region SEQ ID NO: 10 (antibody, listed as Mus musculus, V domains shown)
# VH: QIQLVQSGPELKKPGETVKISCKASGYTFTNYGMNWVKQAPGKGLKWMGWINTYTGEPTYADDFKGRFAFSLETSASTAYLQINNLKNEDTATYFCARGGYGNYGAGAMDYWGQGTSVTVSS
# VL: DIQMTQSPSSLSASLGERVSLTCRASLEISGFLSWLQQKPDGTIKRLIYAASILDSGVPKRFSGSRSGSDYSLTISSLESEDFADYYCLQYASYPWTFGGGTKLEIKR
# Experiments:
# [1] = tested on: human liver cell line HepG2; test: HepG2 liver cancer model in NOD-scid mice; format: in vivo; details: qD1x9 po, n=5; for Average tumor volume: NOD-scid mice
# Procedure: 5×10^6 cells of the human liver cell line HepG2 were suspended in PBS containing 50% Matrigel (Corning Inc., Cat. 354234), and the suspension was inoculated subcutaneously into the axilla of 4 week-old female NOD-scid mice (NOD. CB17-Prkdc/J, purchased from CHARLES RIVER LABORATORIES JAPAN, INC). […] As a control drug, sorafenib (Nexavar tablets 200 mg, Bayer AG), which is a therapeutic agent for liver cancer, was dissolved in a PEG-35 castor oil (Cremophor EL, NACALAI TESQUE, INC., Cat. 09727-14) ethanol solvent according to the reference (Chang et. al., Cancer Chem. Thera. Pharm., 2007) attached to Nexavar tablets, and the solution was orally administered to cancer-bearing mice at 30 mg/kg or 90 mg/kg 9, 10, 11, 12, 13, 16, 17, and 18 days after the inoculation (n=5). The major axis and the minor axis of the inoculated tumor were measured twice a week using an electronic digital caliper (available from MITUTOYO CORPORATION) to calculate the tumor volume by the following formula. Tumor volume (mm^3)=½×minor axis (mm)×minor axis (mm)×major axis (mm)
# [2] = tested on: human peripheral blood mononuclear cells; test: Cytokine release assay using human peripheral blood; format: cell-based; details: 6 donors
# Source text: In some antibodies such as OKT3 and TGN1412, administration of the therapeutic antibodies causes an increase in cytokines in the blood by activating immune cells, thereby causing serious cytokine release syndrome (Gaston, R., Kidney International, 1991, 141-148; Suntharalingam, G., et al., N. Engl. J. Med. 2006, 1018-1028). It has been reported that some CD147 antibodies act on immune cells, having an action of increasing production of interferon gamma or interleukin-4 (Hu, J., et al., J. Cell. Mol. Med., 2010, 2132-2143). The toxicity of antibody drugs due to cytokine release syndrome can be predicted by a cytokine release assay using peripheral blood (Vessillier, S. et al., J. Immunolol. Methods, 2015, 43-52).
# [3] = tested on: human pancreatic line BxPC-3; test: SMAD4-negative BxPC-3 pancreatic cancer-bearing model in BALB/c-nu mice; format: in vivo; details: antibody 10 mg/kg ip 8, 15 and 22 days after the inoculation; BALB/c-nu mice
# Source text: The transcription factor, SMAD4, is known as one of the molecules important for activation of SMAD signaling (Zang, et al., Current Biology, 270-276, 1997). It is known that SMAD signaling is partially impaired due to genetic defects of SMAD4 in some pancreatic cancers (Hahn, et al., Science, 350-353, 1996). […] 2.5×10^6 cells of human pancreatic line BxPC-3 (ATCC, Cat. CRL-1687) were suspended in PBS containing […] (Corning Inc., Cat. 354234), and the suspension was inoculated subcutaneously into the axilla of 6 week-old female BALB/c-nu mouse (CAnN. Cg-Foxn1nu/CrlCrlj, purchased from CHARLES RIVER LABORATORIES JAPAN, INC). […] As a control drug, gemcitabine (Eli Lilly Japan K.K., Gemzar®) that is a therapeutic agent for pancreatic cancer was administered to mice bearing tumor via the tail vein at 200 mg/kg 8, 15, 22 days after the inoculation (n=5). The major axis and the minor axis of the inoculated tumor were measured twice a week using an electronic digital caliper (available from MITUTOYO CORPORATION) to calculate the tumor volume by the following formula. Tumor volume (mm^3)=½×minor axis (mm)×minor axis (mm)×major axis (mm)
# [4] = tested on: human pancreatic line MIA PaCa-2; test: ADCC activity, 51Cr release, human PBMC effector cells; format: cell-based; details: antibody 0.5 or 5 μg/ml; MIA PaCa-2 target cells
# Procedure: Antibody-dependent cellular cytotoxicity (ADCC) activity can be measured by a ^51Cr release assay method, which measures cell death caused when immune cells having effector activity, an antibody and ^51Cr-labeled target cells are brought into contact. The ADCC activity of the anti-human CD147 antibody of the present invention is measured as follows. Regarding the ADCC activity of the anti-human CD147 antibody, human peripheral blood mononuclear cells (PBMC) are used as effector cells, and a CD147-positive human cancer cell line (for example, pancreatic cancer cell line MIA PaCa-2) is used as ADCC target cells. Cancer cells labeled with a radioisotope, ^51Cr, and the antibody to be evaluated are treated at a concentration of 0.5 or 5 μg/ml at 4° C. for 30 minutes, PBMC separated from human peripheral blood is added at 20 times the proportion of cancer cells, and then cells are cultured for 4 hours at 37° C. in the presence of 5% CO2. […] The measured value of ^51Cr released from ^51Cr-labeled cancer cells treated with Triton-100 is designated as a “Maximum release value” and the measured value of ^51Cr released from ^51Cr-labeled cancer cells treated with antibody in the absence of PBMC is designated as a “Spontaneous release value”. With these values, % Specific release is calculated from the following formula. […]
# [5] = tested on: human pancreatic line PANC-1; test: Antibody screening by in-vivo antitumor efficacy, PANC-1 xenograft in NOD-scid mice
# Procedure: 1×10^7 cells of human pancreatic line PANC-1 were suspended in PBS, and the suspension was inoculated subcutaneously into the axilla of NOD-scid mice (CHARLES RIVER LABORATORIES JAPAN, INC., NOD. CB17-Prkdc/J). […] The major axis and the minor axis of the inoculated tumor were measured twice a week using an electronic digital caliper (available from MITUTOYO CORPORATION) to calculate the tumor volume by the following formula. Tumor volume (mm^3)=½×minor axis (mm)×minor axis (mm)×major axis (mm)
# [6] = tested on: human pancreatic line MIA PaCa-2; test: CDC activity with rabbit complement, CellTiter-Glo; format: cell-based; details: antibody 10 μg/ml; rabbit complement 7.5%; 3 hours
# Procedure: Complement-dependent cytotoxicity (CDC) activity can be evaluated by measuring cell death caused when complement contained in blood, an antibody and target cells are brought into contact. The CDC activity of the anti-human CD147 antibody of the present invention is measured as follows. The complement-dependent cytotoxicity activity (CDC activity) of the anti-human CD147 antibody is evaluated using human pancreatic cell line MIA PaCa-2 as target cells. Commercially available rabbit complement (Low Tox-M Rabbit Complement, […] LABORATORIES LIMITED, Cat. CL3051) is used as the complement. […] Target cells are treated with the antibody to be evaluated and the negative control antibody at concentrations of 0, 0.1, 1 or 10 μg/ml for 1 hour at 4° C., the rabbit complement is added in such a manner that the final concentration is 7.5%, the resultant mixture is heated at 37° C. in the presence of 5% CO2 for 3 hours, and then intracellular ATP contained in living cells is measured using the CellTiter-Glo Lumimescent Cell Viability Assay (Promega, Cat. G7572). Luminescent signals obtained using the CellTiter-Glo Lumimescent Cell Viability Assay are quantitatively determined using an EnVision 2104 Multilabel Reader (Perkin Elmer). The measurement is performed three times and the average value and the standard deviation are calculated. […]
molecule,measurement,setting,value
"CNC(=O)c1cc(Oc2ccc(NC(=O)Nc3ccc(Cl)c(C(F)(F)F)c3)cc2)ccn1 [Sorafenib, sorafenib, reference compound]",Number of examples of complete tumor regression,[1]; 30 mg/kg,0/5
same,tumor growth inhibition rate,[1]; 30 mg/kg,18%
same,Average tumor volume,[1]; 30 mg/kg,1425 mm^3
same,Number of examples of complete tumor regression,[1]; 90 mg/kg,0/5
same,tumor growth inhibition rate,[1]; 90 mg/kg,28%
same,Average tumor volume,[1]; 90 mg/kg,1252 mm^3
anti-human CD3 antibody (OKT3): comparative antibody in the cytokine release assay (BioLegend Cat. No317326) [reference compound],acceleration of cell growth in human peripheral blood mononuclear cells,[2],acceleration of cell growth
same,"cytokine release (TNFα, INF-γ, IL-2, IL-6, IL-8, IL-10, MIP-1α)",[2]; human peripheral blood,acceleration of cytokine release
B1,sensitivity of BxPC-3 tumor (in words),[3],resistant
same,ADCC activity (in words),[4],no ADCC activity
same,tumor growth inhibition rate,"[5]; 10 mg/kg ip administration group, 48th day after the inoculation (final measurement date), NOD-scid mice",50%
same,in vivo anti-tumor effect,"[5]; antitumor efficacy of Example 1)-7 (PANC-1 xenograft, 10 mg/kg) as listed in Table 3",50%
same,"living cells (CDC activity, luminescence of non-treated cells = 100%)",[6],41.1%
